B1: PAIP1 peptide 124-139 (Polyadenylate-binding protein-interacting protein 1), 16-mer library wild type / PABPC1 PABC (PABPC1 PABC domain, residues 544-623) (parent complex)
chain 1: LMSKLSVNAPEFYPSG
chain 2: PLTASMLASAPPQEQKQMLGERLFPLIQAMHPTLAGKITGMLLEIDNSELLHMLESPESLRSKVDEAVAVLQAHQAKEAA

Variants of: B1
Assay: proteomic peptide phage display deep mutational scan (ProP-PD DMS): M13 P8 16-mer library selected against immobilised GST-tagged bait for four days (rounds), NGS of the eluted pools per day and pseudo-replica; bait immobilised on MaxiSorp plates (10 µg), library pre-cleared on GST, 2 h binding at 4 °C, five washes; one round per day, days 1-4; value from days 2 and 3

Row | Variant | screen value
1 | chain 1 M2P | 0.000581 average fractional NGS count over selection days 2 and 3 (reads of this peptide / all reads for the bait, averaged over …
2 | chain 1 M2A | 0.000739 average fractional NGS count over selection days 2 and 3 (reads of this peptide / all reads for the bait, averaged over …
3 | chain 1 M2W | 0.000144 average fractional NGS count over selection days 2 and 3 (reads of this peptide / all reads for the bait, averaged over …
4 | chain 1 P10L | 0.00239 average fractional NGS count over selection days 2 and 3 (reads of this peptide / all reads for the bait, averaged over …
5 | chain 1 P10A | 0.0041 average fractional NGS count over selection days 2 and 3 (reads of this peptide / all reads for the bait, averaged over …
6 | chain 1 P10H | 0.000334 average fractional NGS count over selection days 2 and 3 (reads of this peptide / all reads for the bait, averaged over …
7 | chain 1 P10N | 0.00136 average fractional NGS count over selection days 2 and 3 (reads of this peptide / all reads for the bait, averaged over …
8 | chain 1 P10I | 0.000358 average fractional NGS count over selection days 2 and 3 (reads of this peptide / all reads for the bait, averaged over …
9 | chain 1 P10E | 0.00302 average fractional NGS count over selection days 2 and 3 (reads of this peptide / all reads for the bait, averaged over …
10 | chain 1 P10M | 0.000583 average fractional NGS count over selection days 2 and 3 (reads of this peptide / all reads for the bait, averaged over …
11 | chain 1 P10Q | 0.000419 average fractional NGS count over selection days 2 and 3 (reads of this peptide / all reads for the bait, averaged over …
12 | chain 1 P10K | 0.000696 average fractional NGS count over selection days 2 and 3 (reads of this peptide / all reads for the bait, averaged over …
13 | chain 1 P10Y | 0.000572 average fractional NGS count over selection days 2 and 3 (reads of this peptide / all reads for the bait, averaged over …
14 | chain 1 P10D | 0.00221 average fractional NGS count over selection days 2 and 3 (reads of this peptide / all reads for the bait, averaged over …
15 | chain 1 P10R | 0.000887 average fractional NGS count over selection days 2 and 3 (reads of this peptide / all reads for the bait, averaged over …
16 | chain 1 P10S | 0.00454 average fractional NGS count over selection days 2 and 3 (reads of this peptide / all reads for the bait, averaged over …
17 | chain 1 V7P | 0.00145 average fractional NGS count over selection days 2 and 3 (reads of this peptide / all reads for the bait, averaged over …
18 | chain 1 V7S | 0.00035 average fractional NGS count over selection days 2 and 3 (reads of this peptide / all reads for the bait, averaged over …
19 | chain 1 V7A | 0.00224 average fractional NGS count over selection days 2 and 3 (reads of this peptide / all reads for the bait, averaged over …
20 | chain 1 V7Y | 0.000349 average fractional NGS count over selection days 2 and 3 (reads of this peptide / all reads for the bait, averaged over …
21 | chain 1 V7H | 0.00381 average fractional NGS count over selection days 2 and 3 (reads of this peptide / all reads for the bait, averaged over …
22 | chain 1 L5M | 0.0192 average fractional NGS count over selection days 2 and 3 (reads of this peptide / all reads for the bait, averaged over …
23 | chain 1 L5W | 0.000754 average fractional NGS count over selection days 2 and 3 (reads of this peptide / all reads for the bait, averaged over …
24 | chain 1 N8S | 0.00131 average fractional NGS count over selection days 2 and 3 (reads of this peptide / all reads for the bait, averaged over …
25 | chain 1 N8T | 0.00351 average fractional NGS count over selection days 2 and 3 (reads of this peptide / all reads for the bait, averaged over …

Row | Variant | screen value
26 | chain 1 N8A | 0.000206 average fractional NGS count over selection days 2 and 3 (reads of this peptide / all reads for the bait, averaged over …
27 | chain 1 N8L | 0.00116 average fractional NGS count over selection days 2 and 3 (reads of this peptide / all reads for the bait, averaged over …
28 | chain 1 N8W | 0.000471 average fractional NGS count over selection days 2 and 3 (reads of this peptide / all reads for the bait, averaged over …
29 | chain 1 N8M | 0.000551 average fractional NGS count over selection days 2 and 3 (reads of this peptide / all reads for the bait, averaged over …
30 | chain 1 N8F | 0.00423 average fractional NGS count over selection days 2 and 3 (reads of this peptide / all reads for the bait, averaged over …
31 | chain 1 N8E | 0.000334 average fractional NGS count over selection days 2 and 3 (reads of this peptide / all reads for the bait, averaged over …
32 | chain 1 N8Y | 0.000292 average fractional NGS count over selection days 2 and 3 (reads of this peptide / all reads for the bait, averaged over …
33 | chain 1 P14Q | 0.000256 average fractional NGS count over selection days 2 and 3 (reads of this peptide / all reads for the bait, averaged over …
34 | chain 1 P14V | 0.000836 average fractional NGS count over selection days 2 and 3 (reads of this peptide / all reads for the bait, averaged over …
35 | chain 1 P14M | 0.000928 average fractional NGS count over selection days 2 and 3 (reads of this peptide / all reads for the bait, averaged over …
36 | chain 1 P14W | 0.000356 average fractional NGS count over selection days 2 and 3 (reads of this peptide / all reads for the bait, averaged over …
37 | chain 1 P14A | 0.0008 average fractional NGS count over selection days 2 and 3 (reads of this peptide / all reads for the bait, averaged over …
38 | chain 1 P14R | 0.00035 average fractional NGS count over selection days 2 and 3 (reads of this peptide / all reads for the bait, averaged over …
39 | chain 1 K4M | 0.000922 average fractional NGS count over selection days 2 and 3 (reads of this peptide / all reads for the bait, averaged over …
40 | chain 1 K4A | 0.00111 average fractional NGS count over selection days 2 and 3 (reads of this peptide / all reads for the bait, averaged over …
41 | chain 1 K4R | 0.000924 average fractional NGS count over selection days 2 and 3 (reads of this peptide / all reads for the bait, averaged over …
42 | chain 1 K4G | 0.000301 average fractional NGS count over selection days 2 and 3 (reads of this peptide / all reads for the bait, averaged over …
43 | chain 1 K4Y | 0.00101 average fractional NGS count over selection days 2 and 3 (reads of this peptide / all reads for the bait, averaged over …
44 | chain 1 K4E | 0.000553 average fractional NGS count over selection days 2 and 3 (reads of this peptide / all reads for the bait, averaged over …
45 | chain 1 K4L | 0.0004 average fractional NGS count over selection days 2 and 3 (reads of this peptide / all reads for the bait, averaged over …
46 | chain 1 K4T | 0.00284 average fractional NGS count over selection days 2 and 3 (reads of this peptide / all reads for the bait, averaged over …
47 | chain 1 K4D | 0.000813 average fractional NGS count over selection days 2 and 3 (reads of this peptide / all reads for the bait, averaged over …
48 | chain 1 K4I | 0.000664 average fractional NGS count over selection days 2 and 3 (reads of this peptide / all reads for the bait, averaged over …
49 | chain 1 K4P | 0.0037 average fractional NGS count over selection days 2 and 3 (reads of this peptide / all reads for the bait, averaged over …
50 | chain 1 K4Q | 0.00289 average fractional NGS count over selection days 2 and 3 (reads of this peptide / all reads for the bait, averaged over …

Row | Variant | screen value
51 | chain 1 K4H | 0.00136 average fractional NGS count over selection days 2 and 3 (reads of this peptide / all reads for the bait, averaged over …
52 | chain 1 K4N | 0.0102 average fractional NGS count over selection days 2 and 3 (reads of this peptide / all reads for the bait, averaged over …
53 | chain 1 E11M | 0.000642 average fractional NGS count over selection days 2 and 3 (reads of this peptide / all reads for the bait, averaged over …
54 | chain 1 E11A | 0.00172 average fractional NGS count over selection days 2 and 3 (reads of this peptide / all reads for the bait, averaged over …
55 | chain 1 E11V | 0.00325 average fractional NGS count over selection days 2 and 3 (reads of this peptide / all reads for the bait, averaged over …
56 | chain 1 E11T | 0.000925 average fractional NGS count over selection days 2 and 3 (reads of this peptide / all reads for the bait, averaged over …
57 | chain 1 E11P | 0.000423 average fractional NGS count over selection days 2 and 3 (reads of this peptide / all reads for the bait, averaged over …
58 | chain 1 E11D | 0.000612 average fractional NGS count over selection days 2 and 3 (reads of this peptide / all reads for the bait, averaged over …
59 | chain 1 E11I | 0.000759 average fractional NGS count over selection days 2 and 3 (reads of this peptide / all reads for the bait, averaged over …
60 | chain 1 E11S | 0.00171 average fractional NGS count over selection days 2 and 3 (reads of this peptide / all reads for the bait, averaged over …
61 | chain 1 E11Y | 0.000125 average fractional NGS count over selection days 2 and 3 (reads of this peptide / all reads for the bait, averaged over …
62 | chain 1 F12W | 0.00452 average fractional NGS count over selection days 2 and 3 (reads of this peptide / all reads for the bait, averaged over …
63 | chain 1 F12Y | 0.00127 average fractional NGS count over selection days 2 and 3 (reads of this peptide / all reads for the bait, averaged over …
64 | chain 1 S3N | 0.000537 average fractional NGS count over selection days 2 and 3 (reads of this peptide / all reads for the bait, averaged over …
65 | chain 1 S3K | 0.000637 average fractional NGS count over selection days 2 and 3 (reads of this peptide / all reads for the bait, averaged over …
66 | chain 1 S3Q | 0.00262 average fractional NGS count over selection days 2 and 3 (reads of this peptide / all reads for the bait, averaged over …
67 | chain 1 S3M | 0.000284 average fractional NGS count over selection days 2 and 3 (reads of this peptide / all reads for the bait, averaged over …
68 | chain 1 S3L | 0.000356 average fractional NGS count over selection days 2 and 3 (reads of this peptide / all reads for the bait, averaged over …
69 | chain 1 S3H | 0.000523 average fractional NGS count over selection days 2 and 3 (reads of this peptide / all reads for the bait, averaged over …
70 | chain 1 S3A | 0.00075 average fractional NGS count over selection days 2 and 3 (reads of this peptide / all reads for the bait, averaged over …
71 | chain 1 S3V | 0.00074 average fractional NGS count over selection days 2 and 3 (reads of this peptide / all reads for the bait, averaged over …
72 | chain 1 S3D | 0.000994 average fractional NGS count over selection days 2 and 3 (reads of this peptide / all reads for the bait, averaged over …
73 | chain 1 S3E | 0.000689 average fractional NGS count over selection days 2 and 3 (reads of this peptide / all reads for the bait, averaged over …
74 | chain 1 S3T | 0.00109 average fractional NGS count over selection days 2 and 3 (reads of this peptide / all reads for the bait, averaged over …
75 | chain 1 S3W | 0.00081 average fractional NGS count over selection days 2 and 3 (reads of this peptide / all reads for the bait, averaged over …

From publication PMC12102759 (2025)
